The text below walks through data of US9289468B2, “Fusion protein comprising circularly permuted form of trail/Apo2L, coding gene and use thereof” (Beijing Sunbio Biotech Co. Ltd., priority 2011, dated 2016).

In series [1] the test system is RPMI8226 xenograft tumor. The series can be described thus: Inhibitory activity on xenograft tumor of human multiple myeloma. The series is classed as in vivo, athymic nude mice. The note with it: 15 mg/kg i.p. once a day for 8 consecutive days. As to the method: FIG. 8. […] Athymic nude mice (Beijing Huafukang Biotechnology Co., Ltd.) were subcutaneously inoculated with RPMI8226 tumor cells (5×10^6/mouse). When the tumor grew to about 500 mm^3, the mice were divided into several groups, which were intraperitoneally injected with normal saline (control group), NCPT-1.M1 (15 mg/kg) and wild-type TRAIL (wtTRAIL, 15 mg/kg or 45 mg/kg) respectively once a day for 8 consecutive days. The tumor volumes were measured with a vernier caliper every two days.
Athymic nude mice (Beijing Huafukang Biotechnology Co., Ltd.) were subcutaneously inoculated with 5×10^6 RPMI8226 tumor cells/mouse. When the tumor grew to the volume of 500 mm3, the mice were divided into several groups, which were intraperitoneally injected with normal saline (negative control group), NCPT-1.M1 (15 mg/kg) and wtTRAIL (15 mg/kg or 45 mg/kg) once a day for 8 consecutive days. The tumor volumes were measured with a caliper every two days.
In general terms: In xenograft studies the graft and the host belong to different species.

The subject of series [2] is H460 cells. In words: Cell survival by MTT assay with or without Caspase-8 inhibitor zIETD-fmk. The series is classed as cell-based, human. To be noted: 24 h. As to the method:
H460 cells were incubated with NCPT-1.M1 (1.2 or 10 ng/ml) in the presence or absence of Caspase-8 inhibitor zIETD-fmk (concentration of 30 μmmol/L, added 1 h earlier than NCPT-1.M1) for 24 h, and then cell survival rate was measured by MTT assay.
H460 cells were incubated with NCPT-1.M1 of 1.2 ng/ml and 10 ng/ml (the culture method is same as the above) for 24 h, and cell survival rates measured by MTT assay were 60% and 16%, respectively. […] Caspase-8 inhibitor zIETD-fmk (Santa Cruz) was added, and 1 h later, 1.2 ng/ml or 10 ng/ml NCPT-1.M1 was added and co-incubated for 24 h, then, the resulting cell survival rates were 100% and 90%, respectively.
In general terms: Tetrazolium assays rely on reduction of a dye to a coloured formazan, in cell work by metabolically active cells.

The subject of series [3] is human multiple myeloma cell line U266. In words: Combination with melphalan, cell survival (ATPlite). The series is classed as cell-based. As for the experimental part:
FIG. 9. […] U266 cells are insensitive to CPT. At the concentration of 1 μg/ml, NCPT-1.M1 alone has a mild killing effect on U266 (<20%), but with the presence of melphalan (12.5˜50 μg/ml), both of them can cause enhanced killing effect. The cell viability was assayed with ATPlite luminescent system (PerkinElmer), the data as shown in this figure are all represented as the mean±standard deviation, n=4, #P<0.05, ##P<0.01 vs. melphalan group; *P<0.05 vs. NCPT-1.M1 group.

Series [4] concerns NCI-H460 human lung tumor. In words: Combination with paclitaxel and carboplatin on human lung cancer xenograft tumor. Format: in vivo, Balb/c nu athymic nude mice. The note with it: H460 tumor nude mice. As for the experimental part: 5-6 weeks old Balb/c nu athymic nude mice ♂ (provided by Institute of Experimental Animals, Chinese Academy of Medical Sciences) were subcutaneously inoculated with NCI-H460 human lung tumor. When the tumor grew to the size of about 150 mm3, the mice were divided into following and administered: normal saline control group (ip.), NCPT-1.M1 monotherapy group (15 mg/kg, i.p., once a day for 9 consecutive days), chemotherapy group (PC regimen: paclitaxel 30 mg/kg i.p. and carboplatin 60 mg/kg i.p., administered once on the first day), NCPT-1.M1 combination chemotherapy group (administration manner and dosage of each drug are same as the above). During the experiment, the tumor length diameter (a) and wide diameter (b) were measured every two days with a vernier caliper, and tumor volume (, TV) is calculated according to the following formula: TV=½×a×b^2. From the above, the relative tumor volume (RTV) was calculated according to following formula: RTV=Vt/V0. Wherein V0 is the tumor volume measured on the day of the administration, but before administration (i.e., d0), and Vt is the tumor volume measured every time. The relative tumor proliferation rate T/C (%) is used as an evaluation index.
(§1) T/C %=RTVT/RTVC*100%. (RTVT: RTV of the treatment group; […]: RTV of the negative control group).

For series [5], the system named is RPMI8226 tumor. In words: Combination with melphalan and prednisone on human multiple myeloma xenograft tumor. The series is classed as in vivo, Balb/c nu athymic nude mice. To be noted: NCPT-1.M1 15 mg/kg ip x10 days; melphalan 0.75 mg/kg po x5 days; prednisone 10 mg/kg po x10 days. As to the method:
Male Balb/c nu athymic nude mice (Beijing Huafukang Biotechnology Co., Ltd.) were subcutaneously inoculated with 5×10^6 RPMI8226 tumor cells/mouse. […] The tumor volumes were measured with a caliper every two days.

The subject of series [6] is human COLO 205 xenograft tumor. The series can be described thus: Inhibitory activity on human colon cancer xenograft tumors. Format: in vivo, Balb/c nu mice. As for the experimental part:
4 to 5 weeks old Balb/c nu mice ♂ (Institute of Experimental Animals, Chinese Academy of Medical Sciences) were subcutaneously inoculated with COLO 205 human colon tumor tissue pieces. When the tumor grew to the volume of 120 mm3, the tumor-bearing mice were divided into 4 groups (n=7/group), which were intraperitoneally injected with normal saline (negative control group), NCPT-1.M1 5 mg/kg, NCPT-1.M1 15 mg/kg and wtTRAIL 15 mg/kg once a day for 10 consecutive days. […] During the experiment, the tumor length diameter (a) and wide diameter (b) were measured every two days with a vernier caliper, and tumor volume (TV) was calculated according to the following formula: TV=½×a×b^2; From the above, the relative tumor volume (RTV) was calculated according to following formula: RTV=Vt/V0. Wherein V0 is the tumor volume measured on the day of the administration, but before administration (i.e., d0), and Vt is the tumor volume measured every time. The relative tumor proliferation rate T/C (%) is used as an evaluation index. Evaluation criteria: T/C (%)>40% means no effect; T/C (%)≦40% and the statistical significance of P<0.05 means being effective.
as §1

The mark [7] stands for this setting: NCPT-1.M1 15 mg/kg i.p. x9 days, paclitaxel 30 mg/kg, carboplatin 60 mg/kg i.p. once day 1.
Where [8] appears, read: 5 mg/kg i.p. once a day for 10 days.
The mark [9] stands for this setting: 15 mg/kg i.p. once a day for 10 days.

Entries after “also recorded” stand apart in the source; their conditions may differ.

B1: NCPT-1.M1: MG+His6+NCPT-1 fusion protein, SEQ ID NO: 5 (protein)
chain: MGHHHHHHTLSSPNSKNEKALGRKINSWESSRSGHSFLSNLHLRNGELVIHEKGFYYIYSQTYFRFQEEIKENTKNDKQMVQYIYKYTSYPDPILLMKSARNSCWSKDAEYGLYSIYQGGIFELKENDRIFVSVTNEHLIDMDHEASFFGAFLVGGGGGGRVAAHITGTRGRSNT
modifications: NCPT-1.M1 polypeptide sequence
One may read the T/C as the ratio of treated to control. For the molecule B1, the “Tumor growth rate compared with wtTRAIL 45 mg/kg” value in series [1] is reported as “significantly lower than that of TRAIL group with a dose of 45 mg/kg; also recorded: significantly lower than that of wtTRAIL group with a dose of 45 mg/kg”. Further, the cell survival rate in series [2] (1.2 ng/ml, 30 μmol/L zIETD-fmk added 1 h earlier) is 100%. Moreover, the cell survival rate in series [2] (1.2 ng/ml, no inhibitor) is recorded as 60%. The molecule also returned a cell survival rate in series [2] (10 ng/ml, 30 μmol/L zIETD-fmk added 1 h earlier) of 90%. This molecule also returned a cell survival rate in series [2] (10 ng/ml, no inhibitor) of 16%. In addition, in series [3] (1 μg/ml alone, U266), the killing effect is listed as less than 20%. In series [3] (U266 / U266B1), the “sensitivity of the cell line” value was “insensitive”. Besides, in series [4] (setting [7]), the “Body weight(g) begining” value turned out to be 19.9 ± 3.08 g and the “Body weight(g) ending” value is on record as 20.9 ± 3.32 g. Besides, in series [4] (same regimens), the RTV came out at 7.32 ± 3.736 and the T/C is listed as 43.9%. Further, the “Tumor size(mm^3) begining” value in series [4] (same regimens, begining) amounted to 156 ± 82.6 mm^3. In addition, the “Tumor size(mm^3) ending” value in series [4] (same regimens, ending) is 867 ± 255.7 mm^3. Also, the “mice in which the tumors completely disappeared” value in series [5] was found to be 16%. In series [6] (setting [8]), the “relative tumor volume RTV” value is 1.39, the “tumor proliferation rate T/C(%)” value came out at 29.89%, the “Tumor volume TV beginning” value was 117 ± 20.4 mm^3 and the “Tumor volume TV ending” value came to 197 mm^3. In series [6] (setting [9]), the “relative tumor volume RTV” value is on record as 0.12, the “Tumor volume TV beginning” value came to 118 ± 21.0 mm^3 and the “Tumor volume TV ending” value came to 15 mm^3. Further, the “evaluation of efficacy (T/C ≦40% and P<0.05 means being effective)” value in series [6] (both dosage groups of NCPT-1.M1 (5, 15 mg/kg), wtTRAIL 15 mg/kg) is listed as “effective”.
